# Data taken from article PMC5376981 (Scientific Reports, 2014).
# B1: VHH861 (VHH)
# VHH: QVQLQESGGGLVQAGGSLRLSCAFSGSIFKMGWYRQAPGKERELVATITHIGVTDYAEFVKGRFTISRDNAKNTVYLLMNSLKPEDTAVYYCNVASRWPDYWGQGTQVTVSS
# Experiments:
# [1] = biological target: full-length VAR2CSA recombinant protein (3D7-DBL1X-6ε) (Plasmodium falciparum 3D7, UniProt Q8I639, strain); assay: SPR
# 3D7-DBL5ε = 3D7-DBL5ε (Plasmodium falciparum 3D7, UniProt Q8I639, strain); assay: ELISA
# FCR3-DBL6ε = FCR3-DBL6ε (Plasmodium falciparum FCR3, UniProt Q6UDW7, strain); assay: ELISA
# FCR3-DBL3X-4ε = FCR3-DBL3X-4ε (Plasmodium falciparum FCR3, UniProt Q6UDW7, strain); assay: ELISA
# 3D7-DBL6ε = 3D7-DBL6ε (Plasmodium falciparum 3D7, UniProt Q8I639, strain); assay: ELISA
binder,measurement,setting,value
B1,Kd,[1],35 nM
same,koff,[1],0.001 s⁻¹
same,kon,[1],29000 M⁻¹ s⁻¹
same,binding result,3D7-DBL5ε,no binding (tested: 0.3 µg/ml)
same,binding result,FCR3-DBL6ε,no binding (tested: 0.3 µg/ml)
same,binding result,FCR3-DBL3X-4ε,binds
same,binding result,3D7-DBL6ε,no binding (tested: 0.3 µg/ml)
